Holding throughout (assay type): binding
A short description of assay [1]: Probe fluorescence ratio response to arachidonic acid relative to ADIFAB2. As to conditions: for DR/DR AA: arachidonic acid, response relative to ADIFAB2; for ΔR/DRAΔ2 AA: Table 5, Arachidonic acid. The gist of the method: (§1)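 Fluorescently labeled rat intestinal FABP variants were read at two emission wavelengths, near the unbound maximum (about 420 to 480 nm) and the FFA-bound maximum (about 495 to 580 nm). R = Fλ1/Fλ2 after subtracting probe-free intensity; ΔR = R+agent − R0, normalized to ADIFAB2 (rI-FABP-L72A).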

The nature of assay [2]: Probe fluorescence ratio response to linolenic acid relative to ADIFAB2. The conditions noted are these: for DR/DR LNA: response relative to ADIFAB2; for ΔR/DRAΔ2 LNA: Table 5. A digest of the protocol: as §1
The nature of assay [3]: Probe fluorescence ratio response to linoleic acid relative to ADIFAB2. As to conditions: for DR/DR LA: response relative to ADIFAB2; for ΔR/DRAΔ2 LA: Table 5. A digest of the protocol:
as §1

Assay [4] is described as follows: Probe fluorescence ratio response to oleic acid relative to ADIFAB2. As to conditions: for DR/DR OA: response relative to ADIFAB2; for ΔR/DRAΔ2 OA: Table 5. The gist of the method: as §1
A short description of assay [5]: Probe fluorescence ratio response to palmitic acid relative to ADIFAB2. As to conditions: for DR/DR PA: response relative to ADIFAB2; for ΔR/DRAΔ2 PA: Table 5. A digest of the protocol:
as §1

The nature of assay [6]: Probe fluorescence ratio response to palmitoleic acid relative to ADIFAB2. As to conditions: for DR/DR POA: response relative to ADIFAB2; for ΔR/DRAΔ2 POA: Table 5. The gist of the method:
as §1

Assay [7] in a line: Probe fluorescence ratio response to stearic acid relative to ADIFAB2. As to conditions: for DR/DR SA: response relative to ADIFAB2; for ΔR/DRAΔ2 SA: Table 5. A digest of the protocol: as §1

B1: 18L 55L 73I 72A (protein, listed as Rattus norvegicus)
chain: AFDGTWKVDRNENYEKFLEKMGINVVKRKLGAHDNLKLTITQEGNKFTVKESSNLRNIDVVFELGVDFAYSAIDGTELTGTWTMEGNKLVGKFKRVDNGKELIAVREISGNELIQTYTYEGVEAKRIFKKE
modifications: PEPTIDE (1)...(131) wild-type rat intestinal fatty acid binding protein
For the molecule B1, the “DR/DR AA” value in assay [1] was 0.443. Moreover, the “DR/DR LNA” value in assay [2] is on record as −0.044. Besides, the “DR/DR LA” value in assay [3] was −0.129. Moreover, the “DR/DR OA” value in assay [4] was determined as 0.021. For the same molecule, in assay [5], the “DR/DR PA” value came to 0.007. In addition, the “DR/DR POA” value in assay [6] is recorded as −0.030. Besides, the “DR/DR SA” value in assay [7] was found to be 0.423.

B2: 21W 78A 102V 72A (protein, listed as Rattus norvegicus)
chain: AFDGTWKVDRNENYEKFMEKWGINVVKRKLGAHDNLKLTITQEGNKFTVKESSNFRNIDVVFELGVDFAYSAADGTEATGTWTMEGNKLVGKFKRVDNGKEVIAVREISGNELIQTYTYEGVEAKRIFKKE
modifications: PEPTIDE (1)...(131) wild-type rat intestinal fatty acid binding protein
Regarding B2, in assay [1], the “DR/DR AA” value was 4.923. In addition, the “DR/DR LNA” value in assay [2] was 1.628. The “DR/DR LA” value in assay [3] was 2.749. In addition, the “DR/DR OA” value in assay [4] is on record as 3.261. The “DR/DR PA” value in assay [5] was found to be 1.721. Besides, the “DR/DR POA” value in assay [6] came out at 1.585. For the same molecule, in assay [7], the “DR/DR SA” value was found to be 3.092.

B3: 73I 72A (protein, listed as Rattus norvegicus)
chain: AFDGTWKVDRNENYEKFMEKMGINVVKRKLGAHDNLKLTITQEGNKFTVKESSNFRNIDVVFELGVDFAYSAIDGTELTGTWTMEGNKLVGKFKRVDNGKELIAVREISGNELIQTYTYEGVEAKRIFKKE
modifications: PEPTIDE (1)...(131) wild-type rat intestinal fatty acid binding protein
For B3, the “DR/DR AA” value in assay [1] was 0.408. Besides, the “DR/DR LNA” value in assay [2] is given as 0.099. Further, the “DR/DR LA” value in assay [3] is 0.039. In assay [4], the “DR/DR OA” value was found to be 0.045. For the same molecule, the “DR/DR PA” value in assay [5] was 0.015. The “DR/DR POA” value in assay [6] is 0.117. Also, the “DR/DR SA” value in assay [7] is given as 0.242.

B4: L2P12G9: FABP probe, substitutions M18L A73V vs SEQ ID NO: 2 (protein, listed as Rattus norvegicus)
chain: AFDGTWKVDRNENYEKFLEKMGINVVKRKLGAHDNLKLTITQEGNKFTVKESSNFRNIDVVFELGVDFAYSLVDGTELTGTWTMEGNKLVGKFKRVDNGKELIAVREISGNELIQTYTYEGVEAKRIFKKE
modifications: PEPTIDE (1)...(131) wild-type rat intestinal fatty acid binding protein
Turning to B4, the “ΔR/DRAΔ2 AA” value in assay [1] came to 0.5. Besides, the “ΔR/DRAΔ2 LNA” value in assay [2] was found to be 0.0. In addition, the “ΔR/DRAΔ2 LA” value in assay [3] is −0.1. Moreover, the “ΔR/DRAΔ2 OA” value in assay [4] came to 0.0. Further, in assay [5], the “ΔR/DRAΔ2 PA” value is reported as 0.0. For the same molecule, the “ΔR/DRAΔ2 POA” value in assay [6] is given as 0.0. Further, the “ΔR/DRAΔ2 SA” value in assay [7] is reported as 0.4.

B5: L2P8F11: FABP probe, substitution A73I vs SEQ ID NO: 2 (protein, listed as Rattus norvegicus)
chain: AFDGTWKVDRNENYEKFMEKMGINVVKRKLGAHDNLKLTITQEGNKFTVKESSNFRNIDVVFELGVDFAYSLIDGTELTGTWTMEGNKLVGKFKRVDNGKELIAVREISGNELIQTYTYEGVEAKRIFKKE
modifications: PEPTIDE (1)...(131) wild-type rat intestinal fatty acid binding protein
Turning to B5, in assay [1], the “ΔR/DRAΔ2 AA” value stood at 0.4. Besides, in assay [2], the “ΔR/DRAΔ2 LNA” value is 0.1. The “ΔR/DRAΔ2 LA” value in assay [3] was 0.0. Besides, in assay [4], the “ΔR/DRAΔ2 OA” value stood at 0.0. In addition, in assay [5], the “ΔR/DRAΔ2 PA” value was determined as 0.0. Moreover, in assay [6], the “ΔR/DRAΔ2 POA” value is 0.1. Further, in assay [7], the “ΔR/DRAΔ2 SA” value came to 0.3.

B6: 18L 73L 72A (protein, listed as Rattus norvegicus)
chain: AFDGTWKVDRNENYEKFLEKMGINVVKRKLGAHDNLKLTITQEGNKFTVKESSNFRNIDVVFELGVDFAYSALDGTELTGTWTMEGNKLVGKFKRVDNGKELIAVREISGNELIQTYTYEGVEAKRIFKKE
modifications: PEPTIDE (1)...(131) wild-type rat intestinal fatty acid binding protein
B6: in assay [1], the “DR/DR AA” value came to 0.441. Further, the “DR/DR LNA” value in assay [2] came out at 0.090. Moreover, the “DR/DR LA” value in assay [3] turned out to be 0.019. The “DR/DR OA” value in assay [4] stood at 0.021. The “DR/DR PA” value in assay [5] was −0.004. For the same molecule, the “DR/DR POA” value in assay [6] stood at 0.092. Also, the “DR/DR SA” value in assay [7] worked out at 0.254.

B7: L2P9E12: FABP probe, substitutions M18L F55L A73I vs SEQ ID NO: 2 (protein, listed as Rattus norvegicus)
chain: AFDGTWKVDRNENYEKFLEKMGINVVKRKLGAHDNLKLTITQEGNKFTVKESSNLRNIDVVFELGVDFAYSLIDGTELTGTWTMEGNKLVGKFKRVDNGKELIAVREISGNELIQTYTYEGVEAKRIFKKE
modifications: PEPTIDE (1)...(131) wild-type rat intestinal fatty acid binding protein
In the case of B7, the “ΔR/DRAΔ2 AA” value in assay [1] was found to be 0.6. Further, in assay [2], the “ΔR/DRAΔ2 LNA” value amounted to 0.9. Further, the “ΔR/DRAΔ2 LA” value in assay [3] came to 0.7. For the same molecule, in assay [4], the “ΔR/DRAΔ2 OA” value is 0.6. Besides, the “ΔR/DRAΔ2 PA” value in assay [5] was found to be 1.1. For the same molecule, the “ΔR/DRAΔ2 POA” value in assay [6] turned out to be 0.8. Besides, in assay [7], the “ΔR/DRAΔ2 SA” value is reported as 0.4.

B8: L2P4C5: FABP probe, substitutions M18I G31Y vs SEQ ID NO: 2 (protein, listed as Rattus norvegicus)
chain: AFDGTWKVDRNENYEKFIEKMGINVVKRKLYAHDNLKLTITQEGNKFTVKESSNFRNIDVVFELGVDFAYSLADGTELTGTWTMEGNKLVGKFKRVDNGKELIAVREISGNELIQTYTYEGVEAKRIFKKE
modifications: PEPTIDE (1)...(131) wild-type rat intestinal fatty acid binding protein
For B8, the “ΔR/DRAΔ2 AA” value in assay [1] worked out at 2.2. Moreover, the “ΔR/DRAΔ2 LNA” value in assay [2] worked out at 2.8. In addition, in assay [3], the “ΔR/DRAΔ2 LA” value is listed as 2.8. Also, the “ΔR/DRAΔ2 OA” value in assay [4] is 2.1. For the same molecule, in assay [5], the “ΔR/DRAΔ2 PA” value came to 1.8. For the same molecule, in assay [6], the “ΔR/DRAΔ2 POA” value worked out at 2.6. The “ΔR/DRAΔ2 SA” value in assay [7] turned out to be 1.0.

B9: L2P1E6: FABP probe, substitutions M18L A73L vs SEQ ID NO: 2 (protein, listed as Rattus norvegicus)
chain: AFDGTWKVDRNENYEKFLEKMGINVVKRKLGAHDNLKLTITQEGNKFTVKESSNFRNIDVVFELGVDFAYSLLDGTELTGTWTMEGNKLVGKFKRVDNGKELIAVREISGNELIQTYTYEGVEAKRIFKKE
modifications: PEPTIDE (1)...(131) wild-type rat intestinal fatty acid binding protein
B9: in assay [1], the “ΔR/DRAΔ2 AA” value is listed as 0.4. Further, the “ΔR/DRAΔ2 LNA” value in assay [2] is reported as 0.1. For the same molecule, the “ΔR/DRAΔ2 LA” value in assay [3] was 0.1. Besides, the “ΔR/DRAΔ2 OA” value in assay [4] stood at 0.1. Further, the “ΔR/DRAΔ2 PA” value in assay [5] was found to be 0.0. The “ΔR/DRAΔ2 POA” value in assay [6] worked out at 0.1. In assay [7], the “ΔR/DRAΔ2 SA” value is given as 0.2.

The values are drawn from US20060257938A1, “Method of screening for drugs that block ligand binding to a lipid binding protein” (priority 2005, published 2006).
